Among the data in publication PMC9518701 are Kd, other and IC50 values, retold here.

In test [1] the target is SARS-CoV-2 spike protein receptor binding domain (RBD) (SARS-CoV-2, wild type (Wuhan-Hu-1 reference)) (UniProt P0DTC2). Description: SPR.
For test [2] the target is unchanged.
The target of test [3] is SARS-CoV-2 spike protein receptor binding domain (RBD) (SARS-CoV-2) (UniProt P0DTC2).
Test [4] shares this target. This is another data set of the same source.
The target is the same in test [5]. This is another data set of the same source.
The target in the next test is FcγRIIIa (V158). Briefly: SPR.
The next test concerns the target FcγRIIb. Description: SPR.
A further test has as its target FcγRI. Briefly: SPR.
A further test addresses FcγRIIa (R131). Briefly: SPR.
Another test deals with FcγRIIa (H131). Description: SPR.
The next test deals with FcγRIIIa (F158). Briefly: SPR.
Test [6] has as its target human neonatal Fc receptor (FcRn) (human) (UniProt P55899). Briefly: SPR; pH 6.0.

Where two headings read alike, the source gives them in different places.

human neonatal Fc receptor (FcRn) (human), sequence (P55899 24-297, chain 1 of 2): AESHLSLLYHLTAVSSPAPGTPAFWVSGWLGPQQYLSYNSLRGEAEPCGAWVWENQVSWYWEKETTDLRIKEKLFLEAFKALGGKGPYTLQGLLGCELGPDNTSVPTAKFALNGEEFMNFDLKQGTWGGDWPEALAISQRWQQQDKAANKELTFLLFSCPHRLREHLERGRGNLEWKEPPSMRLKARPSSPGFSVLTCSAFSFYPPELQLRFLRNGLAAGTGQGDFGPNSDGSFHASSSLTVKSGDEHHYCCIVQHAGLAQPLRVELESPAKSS
human neonatal Fc receptor (FcRn) (human), sequence (partner, as listed by the source, chain 2 of 2): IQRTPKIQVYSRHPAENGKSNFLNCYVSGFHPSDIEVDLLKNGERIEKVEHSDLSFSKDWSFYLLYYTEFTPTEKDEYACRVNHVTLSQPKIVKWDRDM

With amubarvimab (BRII-196) (antibody), the Kd in test [1] came to 5.88 nM. The substance also registered an other in [2] of 0.026 µg/mL.
In [3], “combination of amubarvimab and romlusevimab” registered an IC50 of 16.4 nM. Moreover, the other in [4] came to 0.047 µg/mL; in test [5], 0.16 µg/mL.
Regarding romlusevimab (BRII-198), the equilibrium dissociation constant (Kd) in the test with FcγRIIIa (V158) stood at 731 nM; in the test with FcγRIIb it was 35300 nM; with FcγRI, 2.77 nM; with FcγRIIa (R131), 23700 nM; with FcγRIIa (H131) it was 13200 nM; with FcγRIIIa (F158) it was 4450 nM. The substance further returned a Kd in [6] of 0.36 nM.
